{"source": "paper PMC6113224", "about": "“Structural basis of cell wall peptidoglycan amidation by the GatD/MurT complex of Staphylococcus aureus” (Scientific Reports, 2018)", "binders": {"B1": {"name": "MurT (Mur ligase homolog MurT of Staphylococcus aureus) (enzyme, UniProt A0A0H2WZQ7 1-437, looked up)", "chain": "MRQWTAIHLAKLARKASRAVGKRGTDLPGQIARKVDTDILRKLAEQVDDIVFISGTNGKTTTSNLIGHTLKANNIQIIHNNEGANMAAGITSAFIMQSTPKTKIAVIEIDEGSIPRVLKEVTPSMMVFTNFFRDQMDRFGEIDIMVNNIAETISNKGIKLLLNADDPFVSRLKIASDTIVYYGMKAHAHEFEQSTMNESRYCPNCGRLLQYDYIHYNQIGHYHCQCGFKREQAKYEISSFDVAPFLYLNINDEKYDMKIAGDFNAYNALAAYTVLRELGLNEQTIKNGFETYTSDNGRMQYFKKERKEAMINLAKNPAGMNASLSVGEQLEGEKVYVISLNDNAADGRDTSWIYDADFEKLSKQQIEAIIVTGTRAEELQLRLKLAEVEVPIIVERDIYKATAKTMDYKGFTVAIPNYTSLAPMLEQLNRSFEGGQS", "notes": "MurT, Mur ligase homolog subunit of the GatD/MurT Lipid II amidation complex, Staphylococcus aureus; full length, untagged; MurT residues 1-35, 195-196 and 434-437 are not seen in the crystal structure"}}, "target": "T1, GatD (glutamine amidotransferase-like protein GatD of Staphylococcus aureus) (Staphylococcus aureus, UniProt A0A0H2WZ38 1-243)", "T1 construct": "GatD, glutamine amidotransferase-like subunit of the GatD/MurT Lipid II amidation complex, Staphylococcus aureus; full length; source: E. coli BL21, co-expressed with MurT from pET21b (gatD/murT operon), purified (Ni-NTA, two rounds of SEC)", "T1 sequence (looked up)": "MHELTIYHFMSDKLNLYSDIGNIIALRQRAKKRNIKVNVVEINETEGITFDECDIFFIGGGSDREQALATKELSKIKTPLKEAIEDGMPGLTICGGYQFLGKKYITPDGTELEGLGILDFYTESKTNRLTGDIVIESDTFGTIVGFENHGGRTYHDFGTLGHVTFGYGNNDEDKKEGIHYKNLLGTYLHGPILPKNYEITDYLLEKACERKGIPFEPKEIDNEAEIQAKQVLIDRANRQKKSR", "assay": "SAXS; two-fold dilution series 0.5 to 8 mg/mL of GatD/MurT in SEC II buffer, extrapolated to zero concentration; beamline P12, DESY", "conditions": "both partners purified"}
{"binder": "B1", "values": [{"measurement": "stoichiometry N", "value": 1}]}
